From patent US20240325557A1, “TREATMENT OF CANCER” (INNATE PHARMA, priority 2020, published 2024)

What was measured:
Assay in all cases: Binding to cell surface expressed Nectin-4 point mutant
Settings in all cases: HEK-293T
[1] = target: T1, Nectin-4 Mutant 2 (V90S/P92A/A93S/E95A/G96D) (Homo sapiens, UniProt Q96NY8, A93S/E95A/G96D/P92A/V90S)
T1 construct: expressed in transfected cells; host or cells: HEK293T
T1 sequence (Q96NY8 32-510 V90S/P92A/A93S/E95A/G96D): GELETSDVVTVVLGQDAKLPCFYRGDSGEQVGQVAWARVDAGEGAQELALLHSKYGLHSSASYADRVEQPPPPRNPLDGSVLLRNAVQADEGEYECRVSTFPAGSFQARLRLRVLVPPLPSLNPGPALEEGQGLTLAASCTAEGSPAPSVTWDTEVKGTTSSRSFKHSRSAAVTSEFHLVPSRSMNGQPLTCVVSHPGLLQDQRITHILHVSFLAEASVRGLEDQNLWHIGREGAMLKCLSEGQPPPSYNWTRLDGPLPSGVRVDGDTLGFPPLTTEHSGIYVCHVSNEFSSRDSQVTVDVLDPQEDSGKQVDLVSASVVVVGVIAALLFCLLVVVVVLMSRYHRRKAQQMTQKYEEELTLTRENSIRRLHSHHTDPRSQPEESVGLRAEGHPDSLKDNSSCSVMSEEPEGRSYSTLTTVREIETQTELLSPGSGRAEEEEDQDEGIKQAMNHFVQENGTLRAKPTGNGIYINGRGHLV
From the text: (§1) Combined with the published structures of the Nectin-4 domains, Nectin-4 mutations at surface exposed amino acids residues were designed. Nectin-4 domain structure was modelled based on Protein Data Bank reference: 4FRW (domains V et C1). Human Nectin-4 used was NCBI Reference Sequence: NP_112178.2, mouse Nectin-4 used was NCBI Reference Sequence: AAL79833.1, cynomolgus Nectin-4 used was NCBI Reference Sequence: XP_005541277.1, rat Nectin-4 used was NCBI Reference Sequence: NP_001102546.1. The cells expressing the Nectin-4 mutants are then be used for testing anti-Nectin-4 antibodies for loss of binding to different Nectin-4 mutants to identify antibodies that bind to the same site on Nectin-4. […] FIGS. 12A and 12B show a molecular model of the human Nectin-4 protein, indicating the position of substituted residues in mutants 7 (12A) and in mutants 7bis (12B); these mutants are in the C1 domain identify two sites at the junction of domain C1 and V domain that are on opposing faces of the Nectin-4 protein.
(§2) Nectin-4 mutants were generated by PCR. The sequences amplified were run on agarose gel and purified using the Macherey Nagel PCR Clean-Up Gel Extraction kit. The purified PCR products generated for each mutant were then ligated into an expression vector, with the ClonTech InFusion system. The vectors containing the mutated sequences were prepared as Miniprep and sequenced. After sequencing, the vectors containing the mutated sequences were prepared as Midiprep using the Promega PureYield™ Plasmid Midiprep System. HEK293T cells were grown in DMEM medium (Invitrogen), transfected with vectors using Invitrogen's Lipofectamine 2000 and incubated at 37° C. in a CO2 incubator for 48 hours prior to testing for transgene expression. The targeted amino acid mutations are shown in Table 2 below, listing the residue present in wild-type Nectin-4/position of residue/residue present in mutant Nectin-4, with position reference being to the Nectin-4 protein with leader peptide shown in SEQ ID NO: 1.

[2] = target: T2, Nectin-4 Mutant 3 (A76S/Q77R/E78A/S91N) (Homo sapiens, UniProt Q96NY8, A76S/E78A/Q77R/S91N)
T2 construct: expressed in transfected cells; host or cells: HEK293T
T2 sequence (Q96NY8 32-510 A76S/Q77R/E78A/S91N): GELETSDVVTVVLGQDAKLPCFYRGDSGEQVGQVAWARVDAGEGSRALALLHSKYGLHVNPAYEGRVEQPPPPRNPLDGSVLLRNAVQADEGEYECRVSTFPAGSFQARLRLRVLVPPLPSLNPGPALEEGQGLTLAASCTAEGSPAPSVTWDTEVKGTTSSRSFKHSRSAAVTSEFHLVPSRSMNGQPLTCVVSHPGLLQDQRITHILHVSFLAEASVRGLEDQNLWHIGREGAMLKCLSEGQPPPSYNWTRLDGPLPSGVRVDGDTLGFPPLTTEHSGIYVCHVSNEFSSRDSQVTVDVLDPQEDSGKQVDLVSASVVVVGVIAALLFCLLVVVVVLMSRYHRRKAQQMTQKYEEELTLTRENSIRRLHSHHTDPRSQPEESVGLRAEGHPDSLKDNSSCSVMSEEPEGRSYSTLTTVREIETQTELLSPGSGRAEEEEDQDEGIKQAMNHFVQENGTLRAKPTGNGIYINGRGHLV
From the text: as §1, §2

[3] = target: T3, Nectin-4 Mutant 7 (S195A/K197T/S199A) (Homo sapiens, UniProt Q96NY8, K197T/S195A/S199A)
T3 construct: expressed in transfected cells; host or cells: HEK293T
T3 sequence (Q96NY8 32-510 S195A/K197T/S199A): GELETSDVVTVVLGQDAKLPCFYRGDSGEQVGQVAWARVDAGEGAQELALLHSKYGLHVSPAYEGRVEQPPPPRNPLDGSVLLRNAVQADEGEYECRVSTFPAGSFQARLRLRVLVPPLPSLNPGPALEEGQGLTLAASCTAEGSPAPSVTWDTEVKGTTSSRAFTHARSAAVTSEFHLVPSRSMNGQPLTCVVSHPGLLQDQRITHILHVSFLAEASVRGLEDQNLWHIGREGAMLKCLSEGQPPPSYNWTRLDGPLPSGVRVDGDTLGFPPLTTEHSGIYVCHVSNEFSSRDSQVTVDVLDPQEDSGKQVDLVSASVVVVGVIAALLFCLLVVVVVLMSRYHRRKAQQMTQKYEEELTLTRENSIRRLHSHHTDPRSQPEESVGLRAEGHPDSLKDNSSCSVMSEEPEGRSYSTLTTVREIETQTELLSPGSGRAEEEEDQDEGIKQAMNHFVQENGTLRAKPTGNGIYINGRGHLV
From the text: as §1, §2

[4] = target: T4, Nectin-4 Mutant 9 (L150S/S152A/Q234R/I236S) (Homo sapiens, UniProt Q96NY8, I236S/L150S/Q234R/S152A)
T4 construct: expressed in transfected cells; host or cells: HEK293T
T4 sequence (Q96NY8 32-510 L150S/S152A/Q234R/I236S): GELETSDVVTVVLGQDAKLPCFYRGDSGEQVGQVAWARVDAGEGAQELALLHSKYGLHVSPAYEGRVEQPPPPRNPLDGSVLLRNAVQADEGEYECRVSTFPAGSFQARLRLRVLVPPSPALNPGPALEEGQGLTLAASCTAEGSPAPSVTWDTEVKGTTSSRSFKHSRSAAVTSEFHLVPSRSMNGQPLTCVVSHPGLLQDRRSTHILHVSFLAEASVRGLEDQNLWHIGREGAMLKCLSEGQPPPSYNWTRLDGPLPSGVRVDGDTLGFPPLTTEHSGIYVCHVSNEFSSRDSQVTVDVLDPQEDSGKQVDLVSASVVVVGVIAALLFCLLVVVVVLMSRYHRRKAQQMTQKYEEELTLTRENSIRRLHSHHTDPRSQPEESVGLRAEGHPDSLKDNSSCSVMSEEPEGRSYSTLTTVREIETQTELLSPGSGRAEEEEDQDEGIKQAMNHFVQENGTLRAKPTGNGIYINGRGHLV
From the text: as §1, §2

B1: 5E7 (antibody, V domains shown)
VH: QVQLQQPGAELVKPGASVKLSCKASGYIFTSYWMHWVKQRPGQGLEWIGEIDPSDSYTNYNQKFKGKATLTLDKSSSTTYMQLSSLTSEDSAVYYCVRGYGNYGDYWGQGTTLTVSS
VL: DVVMTQAAFSNPVTLGTSASISCRSSKSLLHSNGITYLYWYLQKPGQSPQLLIYQMSNLASGVPDRFSSSGSGTDFTLRISRVEAEDVGVYYCAQNLELPWTFGGGTKLEIK
- association with Nectin-4 Mutant 2 [1]: +
- association with Nectin-4 Mutant 3 [2]: +
- association with Nectin-4 Mutant 7 [3]: −
- association with Nectin-4 Mutant 9 [4]: +

B2: 10B12: anti-Nectin-4 antibody, VH SEQ ID NO: 24, VL SEQ ID NO: 25, binds junction of domain C1 and V (antibody, listed as Mus musculus, V domains shown)
VH: QVQLQQPGAELVKPGASVKLSCKASGYTFTSYWMHWVKQRPGQGLEWIGEIDPSDSYTNYNQKFKGKATLTVDKSSSTAYMQLSSLTSEDSAVYYCVRGYGNYGDYWGQGTTLTVSS
VL: DIVMTQAAFSNPVTLGTSASISCRSSKSLLHSNGITYLYWYLQKPGQSPQLLIYQMSNLASGVPDRFSSSGSGTDFTLRISRVEAEDVGVYYCAQNLELPWTFGGGTKLEIK
- association with Nectin-4 Mutant 2 [1]: +
- association with Nectin-4 Mutant 3 [2]: +
- association with Nectin-4 Mutant 7 [3]: −
- association with Nectin-4 Mutant 9 [4]: +

B3: N41 (antibody, V domains shown)
VH: QVQLKQSGPGLVQPSQSLSITCTVSGFSLTNYGVHWVRQSPGKGLEWLGVIWSGGSTDYNAAFISRLSISKDTSKSQVFFKMNSLQADDTAIYYCARELIHAMDNWGQGTSVTVSS
VL: DIQMTQSPASLSVSVGETVTITCRASENIYSNLAWYQQKQGNSPQLLVFAATNLADGVPSRFSGSGSGTQYSLKINSLQSEDFGTYYCQHFWGTPTFGGGTKLEIK
- association with Nectin-4 Mutant 2 [1]: +
- association with Nectin-4 Mutant 3 [2]: +
- association with Nectin-4 Mutant 7 [3]: +
- association with Nectin-4 Mutant 9 [4]: +
